Article doi:10.1101/343756

Tests used:
[1] = biological target: T1, human ETA receptor (human) (UniProt P25101)
T1 sequence: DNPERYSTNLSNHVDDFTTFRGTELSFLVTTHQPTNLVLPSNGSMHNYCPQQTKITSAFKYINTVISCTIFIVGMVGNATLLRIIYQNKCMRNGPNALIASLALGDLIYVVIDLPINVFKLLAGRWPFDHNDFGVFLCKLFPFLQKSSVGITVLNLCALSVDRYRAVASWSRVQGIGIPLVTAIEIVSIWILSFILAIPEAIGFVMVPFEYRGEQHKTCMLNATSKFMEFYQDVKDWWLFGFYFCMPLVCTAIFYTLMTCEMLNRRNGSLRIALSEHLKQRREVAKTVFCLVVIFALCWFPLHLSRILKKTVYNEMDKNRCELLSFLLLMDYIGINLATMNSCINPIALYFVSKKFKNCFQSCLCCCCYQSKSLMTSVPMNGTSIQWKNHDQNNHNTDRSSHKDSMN

[2] = biological target: human ETB receptor, wild type, construct with an internal FLAG epitope tag (human) (UniProt P24530)
[3] = biological target: human ETB receptor, wild type, fused to SmBiT (ETB-SmBiT) (human) (UniProt P24530)
[4] = biological target: thermostabilized human ETB receptor (ETB-Y5) fused to SmBiT (human) (UniProt P24530)
[5] = biological target: thermostabilized human ETB receptor (ETB-Y5), construct with an internal FLAG epitope tag (human) (UniProt P24530)
[6] = biological target: human ETB receptor L252H I254T double mutant, construct with an internal FLAG epitope tag (human) (UniProt P24530)
[7] = biological target: T2, human ETA receptor fused to SmBiT (ETA-SmBiT) (human) (UniProt P25101)
T2 sequence: T1 sequence

Substance	AP-TGFα release (TGFα shedding assay), no activation at the concentration tested [1]	EC50, AP-TGFα release (TGFα shedding assay, G-protein activation), HEK293 cells [2]	Emax, TGFα shedding assay, percent of that of ET-1 [2]	Emax, NanoBiT β-arrestin recruitment assay, percent of that of ET-1 [3]	Emax, NanoBiT β-arrestin recruitment assay, percent of that of ET-1 [4]	Emax, TGFα shedding assay, percent of that of ET-1 [5]	change of EC50 against the wild type receptor, TGFα shedding assay [6]	EC50 against that of ET-1, TGFα shedding assay [1]	EC50 against that of ET-1, NanoBiT β-arrestin recruitment assay [7]
IRL1620 (N-Suc-[E9, A11, 15] ET-1(8-21)) (peptide)	> 320 nM	0.11 nM	88%	87%	85%	84%	2 fold	–	–
endothelin-3 (from UniProt P14138 97-117) (peptide)	–	–	–	–	–	–	–	5 fold	5 fold
